This passage reports Bubbles Bound in presence of competitor, Integrated density of bound beads (arbitrary units) and IC50 results from patent US20060153775A1.

Assay [1] concerns the target binding target for TKPPR on HAEC (human aortic endothelial cells). The experiment in a line: competition of 5% composition bubble binding to HAEC; KDR/Fc 500 ng/mL.
For assay [2] the target is unchanged. As to the kind of experiment: competition of 5% composition bubble binding to HAEC; KDR/Fc 1000 ng/mL.
Assay [3] has the same target. The experiment in a line: competition of 5% composition bubble binding to HAEC; KDR/Fc 250 ng/mL.
The target is the same in assay [4]. As to the kind of experiment: competition of 5% composition bubble binding to HAEC; KDR/Fc 2500 ng/mL.
The target is the same in assay [5]. As to the kind of experiment: competition of 5% composition bubble binding to HAEC; KDR/Fc 125 ng/mL.
Assay [6] has the same target. The experiment in a line: fluorescent beads on confluent HAEC, static 30 min, image analysis.
The target is the same in assay [7]. As to the kind of experiment: competition of 5% composition bubble binding to HAEC.
Assay [8] shares this target. The experiment in a line: competition of 5% composition bubble binding to HAEC; VEGF165 6.25 ng/mL.
For assay [9] the target is unchanged. As to the kind of experiment: competition of 2% D47 bubble binding to HAEC; VEGF165 100 ng/mL.
For assay [10] the target is unchanged. The experiment in a line: competition of 5% composition bubble binding to HAEC; VEGF165 75 ng/mL.
For assay [11] the target is unchanged. As to the kind of experiment: competition of 5% composition bubble binding to HAEC; VEGF165 50 ng/mL.
For assay [12] the target is unchanged. As to the kind of experiment: competition of 5% composition bubble binding to HAEC; VEGF165 12.5 ng/mL.
Assay [13] shares this target. The experiment in a line: competition of 5% composition bubble binding to HAEC; VEGF165 25 ng/mL.
Assay [14] shares this target. The experiment in a line: competition of 2% D47 bubble binding to HAEC; VEGF165 25 ng/mL.
Assay [15] has the same target. As to the kind of experiment: competition of 2% D47 bubble binding to HAEC; VEGF121 400 ng/mL.
For assay [16] the target is unchanged. As to the kind of experiment: competition of 2% D47 bubble binding to HAEC; VEGF121 200 ng/mL.
The target is the same in assay [17]. As to the kind of experiment: competition of 2% D47 bubble binding to HAEC; VEGF121 100 ng/mL.

soluble human KDR/Fc chimera (R&D Systems Inc.), sequence (P35968 20-764, change not shown): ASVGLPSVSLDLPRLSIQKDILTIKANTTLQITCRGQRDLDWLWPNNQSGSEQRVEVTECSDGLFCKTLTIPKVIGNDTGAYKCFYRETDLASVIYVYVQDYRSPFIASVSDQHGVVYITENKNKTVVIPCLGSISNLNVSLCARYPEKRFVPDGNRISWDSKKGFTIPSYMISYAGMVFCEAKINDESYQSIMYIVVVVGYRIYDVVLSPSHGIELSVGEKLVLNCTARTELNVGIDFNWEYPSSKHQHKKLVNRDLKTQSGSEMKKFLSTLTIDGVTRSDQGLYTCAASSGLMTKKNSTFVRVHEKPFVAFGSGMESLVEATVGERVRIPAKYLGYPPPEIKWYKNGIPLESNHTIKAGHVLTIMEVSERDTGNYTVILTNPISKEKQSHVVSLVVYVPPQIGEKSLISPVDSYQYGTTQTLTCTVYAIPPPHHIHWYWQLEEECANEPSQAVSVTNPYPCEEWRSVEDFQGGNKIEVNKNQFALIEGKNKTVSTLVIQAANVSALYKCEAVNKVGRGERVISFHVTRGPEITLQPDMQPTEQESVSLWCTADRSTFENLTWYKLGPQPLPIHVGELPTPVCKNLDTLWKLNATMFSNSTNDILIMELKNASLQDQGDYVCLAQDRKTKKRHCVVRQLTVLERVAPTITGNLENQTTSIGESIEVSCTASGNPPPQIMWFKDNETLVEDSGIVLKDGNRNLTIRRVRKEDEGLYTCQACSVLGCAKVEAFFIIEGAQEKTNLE

With “soluble human KDR/Fc chimera (R&D Systems Inc.) (from UniProt P35968 20-764) (Fc fusion)”, the Bubbles Bound in presence of competitor amounted to 342 bubbles in assay [1]; 75 bubbles in assay [2]; 786 bubbles in [3]; 84 bubbles in assay [4]; 1030 bubbles in assay [5].
With “BSA-conjugated fluorescent microspheres (from UniProt P02769 25-607)”, in assay [6], the Integrated density of bound beads (arbitrary units) came out at 1.61.
“VEGF165 (from UniProt P15692 27-191) (ligand)”: in [7], the IC50 was 0.0125 µg/mL. Also, the Bubbles Bound in presence of competitor in assay [8] was determined as 1180 bubbles; in [9] it was 94 bubbles; in [10], 190 bubbles; in assay [11] it was 226 bubbles; in assay [12], 599 bubbles; in assay [13], 342 bubbles. Further, the Bubbles Bound in presence of competitor in [14] was 144 bubbles.
Turning to “VEGF121 (from UniProt P15692 27-147) (ligand)”, the Bubbles Bound in presence of competitor in [15] was 778 bubbles; in [16] it was 849 bubbles; in assay [17], 878 bubbles.

What is called IC50 is the concentration that inhibits the measured activity by half.
